PMC9545174, “Discovery and characterization of SARS-CoV-2 reactive and neutralizing antibodies from humanized CAMouse^HG mice through rapid hybridoma screening and high-throughput single-cell V(D)J sequencing” (Frontiers in Immunology, 2022)
Where a chain is given by its changes, count along the chain named.

B1: 18-4A (antibody, V domains shown)
VH: QVQLQQSGPGLVKPSQTLSLTCAISGDSVSNNSAAWNWIRQSPSRGLEWLGRTYYRSKWYNDYAVSVSSRITINPDTSKNQFSLQLNSVTPEDTAVYYCAREGALLWFGEGAFDYWGQGTLVTVSS
VL: EIVLTQSPGTLSLSPGERATLSCRASHIVSSSYLAWYQQKPGQAPRFLIYGASSRATGIPDRFSGSGSGTDFTLTISRLEPEDFAVYYCQQYAGSPFTFGPGTKVDIK
B2: 11-2G (antibody, V domains shown)
VH: QVQLQQAGPGLVKPSQTLSLTCAISGDSVSNNSAIWNWIRQSPSRGLEWLGRTYYRSKWYNDYAVSVSSRITINPDTSKNQFSLQLNSVTPEDTAVYYCARVDILTGYSFDYWGQGTLVTVSS
VL: EIVLTQSPGTLSLSPGERATLSCRASQSVSSSFLAWYQQKPGQAPRFLIYGESYRATGIPDRFSGSGSGTDFTLTISRLEPEDFAVYYCQQYGSSLTFGGGTKVEIK
B3: 15-11F (antibody, V domains shown)
VH: QVQLQQSGPGLVKPSQTLSLTCAISGDSVSNNSAAWNWIRQSPSRGLEWLGRTYYRSKWYNDYAVSVSSRITINPDTSKNQFSLQLNSVTPEDTAVYYCARFSRLLGYGMDVWGQGTTVTVS
VL: B2 VL with S30I, F33Y, A35S, E52A, S53A, Y54S
B4: 4-2D (antibody, V domains shown)
VH: QVQLQQSGPGLVKPSQTLSLTCAISGDSVSNNSAAWNWIRQSPSRGLEWLGRTYYRSKWYNDYAVSVSSRITINPDTSKNQFSLQLNSVTPEDTAVYYCARGLWIPYYYGMDVWGQGTTVTVS
VL: B2 VL with S31N, S32I, Y54S, G100P, E105D
B5: 4-1B (antibody, V domains shown)
VH: QVQLQQSGPGLVKPSQTLSLTCAISGDSVSNNSAAWNWIRQSPSRGLEWLGRTYYRSKWYNDYAVSVSSRITINPDTSKNQFSLQLNSVTPEDTAVYYCARGVYGSGPHAFDIWGQGTMVTVSS
VL: B2 VL with G51V, E52T, Y54N

Key:
[1] = target: T1, wildtype SARS-CoV-2 RBD Protein (Severe acute respiratory syndrome …, UniProt P0DTC2); assay: SPR; settings: both partners purified
[2] = target: T1, wildtype SARS-CoV-2 RBD Protein; assay: BLI; settings: both partners purified

Binder | Kd [1] | binding result [2]
B1 | 0.234 nM | 
B2 | 0.451 nM | 
B3 |  | binds
B4 |  | binds
B5 |  | binds
